{"source": "the DeepSol protein solubility set", "data": [{"assay": "soluble on expression in E. coli; label from the status in PepcDB or PDB records", "values": [{"sequence": "MAATVRNLPALFRGLHSKEVCQKMSFSVSAAAKSEILVDTHGSKKVVTLNRPKALNALNLEMVREFYPKLQAWNSSSDVDLVILKGSGDKAFCAGGDVLAVVRSFKDSESGKECTMHKDFFREEYILNHLIGTLNKQYVCLIDGIVMGGGCGLSVNGRFRVATEKTMLAMPETALGLFPDVGGSYFLSRLKGNLGMYLALTGYRLLGADAFHAGLATHFVESSELAKLEKELVNIKDVTENSVDEVIRSFEPKKIPEFSLSKNLAQIRDSFKAKSVEEILASLEKDGSDWAKKQAATLGKMSPTSLKVTHRQITEGSKMSYAKIFTMEYRLTQRFLADKDFHEGCRAILVDKDRKPKWNPATLADVKDSVVDNYFSPLPNNSDLKL", "soluble on expression in E. coli": "not soluble"}, {"sequence": "MSLSTPSKAMAAMEFNTTSVNKSSAIDSNNTKKEQLSDVNDISFTDHGYYIIPSLDTLNGMPLVELRSVNGLVVGHKDYGKVEFLEPVDLVNVPLNSICDKLIHFEPKTCILYPNSPIKPKKGEGMNVPAKITCFDCFPINKSTREPILDANSTLLKKHIDKLKKVPGTKFVSYEEKTGKYVFTVDEPILEGHHHHHH", "soluble on expression in E. coli": "soluble"}, {"sequence": "MGSDKIHHHHHHMSLNSTPQSVRVHIGLFGKRNAGKSSIINAITNQSAAIVSDIAGTTTDPVFRPMEILPIGPCVLIDTAGLDDVGELGELRIGKSLDVLEKTDIALLVVDCQIGISQEDLSLIEKFNDKNIPHILILNKIDTIKNQSEILNLTKNKVKCPVVSVSSTDKIGIENLKNEIIKVLPKDSTEFKLVSDLIEPNDLVVLVVPIDKAAPKGRLILPQQQVIRDILDNGAISIVTKEDSLKETLSNLGKKPKLVITDSQVFPQVDKDTPKDIPLTSFSILFARQKGDLKELINGAYALENLKDGDKILMAEGCTHHRQTDDIGTVKIPNMIRKKTGKNITFEFSSGVSFTEDINKYALVVHCGACMMNRAGMLSRIEKAKSFNVPIVNYGVLIAYVKGILERSLELFNY", "soluble on expression in E. coli": "not soluble"}, {"sequence": "MGEGIGRVFFLKDEVGFQPLSNHQGLVVKLLESWREGDEPLALSPKTKERLLLAARYHDDGKRFTFHIVPDGKGGLTYSFRGHRFRVAQAVQDPYAQALIRGHHDYSTREVVNLAADFLEEGLGHRFPEDLFLLMMADQLEAELAVRLWQRRAGEVRPFVEFDLLPDGEGGFLLDPWPFRVDEVALDFLVYFHPYRGEEAKVVEGWGRALVGALEEGKVPEAFREEKRRVRLRPWAAGARKADDPEAFYDRFGLKPTPFQREVFKVAEGDPAHLLLAPTGTGKTEAAAFPALARGERLVFVLPTRSLVDDLEGRFRCYLKILAQEEGRPKALVVDTGHRQARFRFSPDGQEEATKERHLYHADVILTTLDKLLYRYFGYAEGVKSYTFPRRIHDRRTLFVFDEVHLYEATAWVNFRHLIASLYKAGVRFLVMSATMPGTYREELLLEGTLEHPAAKRPSRVLRYMPQGNPMEIIQSHRGKRVLVVLEEVKEAAELYKRLKGEGVFLYHGRLAEGQRRRVFGEVKRRDKAQEPYLLITTPAIEVGVDLDAEVLVTTLCPPENLLQRLGRVNRRGGGQGEAYVVGETYPDYLGSLPEGYLELLKALDGQDLAQGGEERLRQAIRYPKYLDPRAETFFEALQDYVYGLDLTQEPLHRKGFVATRGWTPSVRLRQGEDEVEVPIDRLVGRKEELTPVRVVERLLTDGETGNRRREEVPLRSGELYGRELVLNYPYPYDPELGFVELPKVFQRLRHPDPQRVQLLYAPEKDAGEAPEGVMDTDQVTGGGRRVLWYLGESAWAEPAKSGEVAEETEEEEEEGD", "soluble on expression in E. coli": "soluble"}, {"sequence": "MEPAGPCGFCPAGEVQPARYTCPRCNAPYCSLRCYRTHGTCAENFY", "soluble on expression in E. coli": "soluble"}, {"sequence": "MEFMRVLLIAGGVSPEHEVSLLSAEGVLRHIPFPTDLAVIAQDGRWLLGEKALTALEAKAAPEGEHPFPPPLSWERYDVVFPLLHGRFGEDGTVQGFLELLGKPYVGAGVAASALCMDKDLSKRVLAQAGVPVVPWVAVRKGEPPVVPFDPPFFVKPANTGSSVGISRVERFQDLEAALALAFRYDEKAVVEKALSPVRELEVGVLGNVFGEASPVGEVRYEAPFYDYETKYTPGRAELLIPAPLDPGTQETVQELALKAYKVLGVRGMARVDFFLAEGELYLNELNTIPGFTPTSMYPRLFEAGGVAYPELLRRLVELALT", "soluble on expression in E. coli": "soluble"}, {"sequence": "MSLSSEPVVVAILPHAAELAEKIAAKIGGRVDLRGSDFTDTGAHLRSLFLAGHPIVGIGAAGIYIRSLASVLGDKNSEPPVLAVSEDARNIVPLLGGHHGANGLAKEIADYLETAAAVTTSGDVAMGVALDEPPQGWKLENPEDAKGAMAALLGGAKAQQSGNGDWLTPLSSRVEFSETDADAPVVLSVEGAAPLIYRRQSFALGLGCARGCDPDELIALVAKTLADNGRSIHEVAMVGSIDIKSDEAAIHAVARHLGVPARFFDADELNSVTPRLANPSEVVRAEVGVAGVSEGAALVMAGVSGALVIEKTKTANATCALARISQDGSEGHHHHHH", "soluble on expression in E. coli": "soluble"}, {"sequence": "MTLIDCCDPQKPSRVLFHFLILDAPSPSNLPTYIKELQHRGVRHLVRVCGPTYDATLVKSRGIDVHSWPFDDGAPPTRAVLDSWLKLLDTELARQQEDPSVPPPTIGVHCVAGLGRAPILVALALVEYGNVSALDAIALIREKRKGAINQTQMHWITKYKR", "soluble on expression in E. coli": "not soluble"}, {"sequence": "MSLNSTLHIPKAEIHVHLEATITPSLCRKFAERNKVKLSEDIFGSEYAYQWEDFYDFIKRYDIVTGVIYTPEDYYELTYEYLKECASYNVLYVEAMVSSTHAKAKGMTYHSFLDSVHQASQDAERDFGIVSRYLMNGIRHLGADSVQETAKEVLNNPHPALVGFGLAGDELNFPPNLFTKTFDMLKQESYPITVHAGEWDGPENIRNAIHLLHPTRLGHGVRSIEDLDLVKEIVEKDIVLETCPTSNIATKIYENYESHPVKKLHDLGVRVTVNSDDPPFFNATIQGEYDAMAGIGFSAQELLSMTRNAIESSFLPEDKKTEILTKLNEGHHHHHH", "soluble on expression in E. coli": "soluble"}, {"sequence": "MALNFLSYDDDFCGYCGAILELPAQAPATVSCKVCSTRWAVKERVDQVVSRVEKIYERTVADTDGIENDESADAVVDHICTKCGHSKASYSTMQTRSADEGQTVFYTCLKCKKKDIEYS", "soluble on expression in E. coli": "not soluble"}, {"sequence": "MKSLGNRQRFLRRAREELKRSIRDKVRAGGIAELDREHVVPIPRKGTGEPTFGDDKESGRRQHILPGNRTFSSGDLIPKPGGGGGYGSAAGTTESEDDFRFVLSREEVLDLFFEDLELPDLVKLNLKQVLSFKPRRAGFAASGAPTNINVGRTMRNSHGRRIALRRPKQAELDAIARQIAELEAKPASALVRERIAALREALDRLERRRKRIAYVDPVDIRFNRFDPQPLPNANAVMFCLMDVSGSMGEREKDLAKRFFVLLHLFLTRRYERTDIVFIRHTHLAKEVDEHTFFYHTESGGTVVSTALEEMHRIIEQRYPVAEWNIYAAQASDGDNFAGDSERCIELLDRKLMRLCQYFAYVEIIDERESHIFGATENGTSLWRAYNAVDGKWPNFQMRRIAAPADIYPVFRQLFARQPDLRKSALEHHHHHH", "soluble on expression in E. coli": "soluble"}, {"sequence": "MQGFQPPAEKDAIEFAKKHRKEFEKVGEQFFKDNFGLKVKATNVVGKDDGIEVYVHCDDHGIVFNASLPLYKDAIHQKGSMRSNDNGDDMSMMVGTVLSGFEYRAQKEKYDNLYKFFKENEKKYQYTGFTKEAINKTQNVGYKNEYFYITYSSRSLKEYRKYYEPLIQKNDKEFKEGMERARKEVNYAADTDAVATLFSTKKNFTNDNTEDDVIELSDKLYNLKNKPDKSTITIQIGKPTINTKKAFYDDNRPIEYGVHSKGELEHHHHHH", "soluble on expression in E. coli": "soluble"}, {"sequence": "TLDPNAQQTAYEQLSQSGYEGAVVALRPSTGEVLAMASSPSYDPNQIVDPATAEDAWAEYTSTEGAPLLNHATQESLPPGSIFKIITTAAALENGYSADSTVTAEAAVTLPGTNTTLTNYGGQTCAGGGTTTLLTAFQLSCNTAFVETGIDVGADALRASAEDFGVGQTYSLGLDNVPGGLGEIPDDAALGQSSIGQRDVQMNVLQAAVMAGTVSNGGVRMEPYLVSRVTGQDLSELSTHKPKSVGGVEPEIAEQLKTLMEASERNTSGYTGIQIASKTGTAEHGDENTPPHTWYVAFNNDIAVAVLVKDGGGFGTSATGGQVAAPIGRAVLQAAGGF", "soluble on expression in E. coli": "not soluble"}, {"sequence": "MSDATLHNTTQDPDDFAVQIADQVESFLVAVTEVAKGDEPDSAVPFLLLEVSQLLLAGGRLGAHEDIVPDERYEPDMGPEPDVDELRERLATMLDPVDVYSEVFDPYEPRKAPVPARISDDLADVIADLRHGMAHYRAGRTTEALWWWQFSYFSNWGSTASATLRALQSLVAHVRLNQPLEELDGLDTDQDLSEDALAEEAGRVMASEIAGPLGLRTVRLEHHHHHH", "soluble on expression in E. coli": "soluble"}, {"sequence": "MNYELMEPAKQARFCVIWLHGLGADGHDFVDIVNYFDVSLDEIRFIFPHADIIPVTINMGMQMRAWYDIKSLDANSLNRVVDVEGINSSIAKVNKLIDSQVNQGIASENIILAGFSQGGIIATYTAITSQRKLGGIMALSTYLPAWDNFKGKITSINKGLPILVCHGTDDQVLPEVLGHDLSDKLKVSGFANEYKHYVGMQHSVCMEEIKDISNFIAKTFKI", "soluble on expression in E. coli": "not soluble"}, {"sequence": "MFNKILVVCVGNVCRSPTAERLLKRFHPSLTVASAGLGALVGKGADPAAASVASAHDLSLENHCARQISARLCREYDLILTMEKRHIAALCDIAPEMRGKVMLFGHWDSEREIPDPYRKSRDAFEAVYTLLERSARQWAQALNAEQGKP", "soluble on expression in E. coli": "not soluble"}, {"sequence": "TLVRVKKSAATLGIAIEGGANTRQPLPRIVTIQRGGSAHNCGQLKVGHVILEVNGLTLRGKEHREAARIIAEAFKTKDRDYIDFLVTEFN", "soluble on expression in E. coli": "soluble"}, {"sequence": "MGSDKIHHHHHHMTLLDKDLVSIQEVRTLVRRSKVAQEKLSKMSQEQIDKIVKAVVDAAFNNATKLAKMANEETGFGKWEDKVIKNTFASMGVYETLKNTKTIGIIGEDKEANTIDIATPVGVVAGLIPSTNPTSTVIYKTIISLKAGNTIVFSPHPNAKNCILETVNIISDAAIKAGAPEDSILCITNPSIVGTNELMKHKDTNLILATGGEAMVRAAYSSGTPAIGVGPGNGPAFIDKSANVKLAIKRIIDSKTFDNGVICASEQSIVIEKSMEETVLKELKNQGAYVLNEEESERLAKFILRANGTMNPQIVGKSVEVIANLADLTNVPKNTKVLVARENKVGHNVAYSREKLTPILAFYVEENVEAIMNRCREILLNEGAGHTFSMHVNDEELVKRFALNMPVSRILVNTPSALGGIGASTNLVPALTLGCGAIGGSSTSNNIGPLDLINVKRVAYGIKEIEELGRDKSQVEKSMFDSMDKEELINLLVQKLFKELA", "soluble on expression in E. coli": "not soluble"}, {"sequence": "MQPAVYILASQRNGTLYIGVTSDLVQRIYQHREHLIEGFTSRYNVTMLVWYELHPTMESAITREKQLKKWNRAWKLQLIEENNVSWQDLWFDII", "soluble on expression in E. coli": "not soluble"}, {"sequence": "MVTCGSIFIIRIACKDKKGQASGKDNKEKRVFRAVTGNKSESYFPFGHIFIFSQGATRTDEKSFLLSEDYEPKTVGLRCVFWRKHAREIFRFGSKNFYFSRHNEKIFAPRLFQPYSGFFSNDKREKVSMCHR", "soluble on expression in E. coli": "not soluble"}, {"sequence": "MRMFSVQPIAFVHNERKEIKDDEWGEVRSRITLTEMYAEKSIQGIEDFSHIEVVFYFHKVTDEQIQYFARHPRNNKDYPEVGIFAQRGKNRPNRIGVTIVKVIKREGKSIIVEGLDAIDGTPILDIKPIMKEFMPTEEIHQPKWATDIMRQYWKGNVVKLEHHHHHH", "soluble on expression in E. coli": "soluble"}, {"sequence": "MKLFLAEPFKSLWAGRDAFAEVEGLSGEVYRELEGRRTLRTEVDGRGYFVKIHRGIGWGEIAKNLATAKLPVLGAGKEWDAIERLHEVGVPTMTAVAYGERGSNPAAQHSFIVTEELAPTTSLEDVSLNWRTEPPEPRLKRAFIAEVARLVGMMHRAGVNHRDCYICHFLLHTDKPVTADDFRLSVIDLHRAQTRRAITPRWRNKDLAALYFSALDIGLTRRDKLRFLKDYFQLPLREILLKEAALLTWLDKKADKLYQRKVRYGDAL", "soluble on expression in E. coli": "not soluble"}]}]}
